Laboratory results: the supplement of paper PMC5998384

What was measured:
[1] = test system: HeLa Kyoto; test: melting temperature (median over replicates), in situ; higher = more thermally stable
[2] = test system: HeLa Kyoto; test: solubility in G1/S (NP-40 vs SDS abundance) (log2 ratio); higher = more soluble; conditions: cell cycle stage: G1/S
[3] = test system: HeLa Kyoto; test: thermal stability score vs G1/S (z-score of summed log2 fold changes over temperatures); higher = more thermally stable than in G1/S
[4] = test system: HeLa Kyoto; test: solubility change mitosis vs G1/S (difference of NP-40 vs SDS log2 ratios) (log2 ratio difference); higher = more soluble in mitosis
[5] = cell cycle stage: early G1 (4.5 h after nocodazole release)
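Throughout, for melting temperature (median over replicates), in situ: HeLa Kyoto cells synchronized by double thymidine or nocodazole block, proteins quantified by TMT10plex mass spectrometry, three independent biological replicates.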
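Throughout, for solubility change mitosis vs G1/S (difference of NP-40 vs SDS log2 ratios): synchronized HeLa Kyoto cells (double thymidine block for G1/S, nocodazole release for mitosis), protein amounts in NP-40 versus SDS lysates quantified by mass spectrometry, three biological replicates.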
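Throughout, for solubility in G1/S (NP-40 vs SDS abundance): HeLa Kyoto cells arrested at G1/S by double thymidine block, proteins quantified by TMT10plex mass spectrometry in mild NP-40 versus SDS extracts, three biological replicates.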
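Throughout, for thermal stability score vs G1/S (z-score of summed log2 fold changes over temperatures): synchronized HeLa Kyoto cells, proteins quantified by TMT10plex mass spectrometry, three biological replicates, mitosis taken 0.5 h after nocodazole release, G1/S directly after double thymidine block.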

Substance | melting temperature ([1]; cell cycle stage: G1/S) | melting temperature ([1]; cell cycle stage: mitosis) | solubility in G1/S (log2) [2] | thermal stability score [3, 5] | thermal stability score ([3]; cell cycle stage: mitosis) | solubility change mitosis (log2) [4]
MGKKQKNKSEDSTKDDIDLDALAAEIEGAGAAKEQEPQKSKGKKKKEKKKQDFDEDDILKELEELSLEAQGIKADRETVAVKPTENNEEEFTSKDKKKKGQKGKKQSFDDNDSEELEDKDSKSKKTAKPKVEMYSGSDDDDDFNKLPKKAKGKAQKSNKKWDGSEEDEDNSKKIKERSRINSSGESGDESDEFLQSRKGQKKNQKNKPGPNIESGNEDDDASFKIKTVAQKKAEKKERERKKRDEEKAKLRKLKEKEELETGKKDQSKQKESQRKFEEETVKSKVTVDTGVIPASEEKAETPTAAEDDNEGDKKKKDKKKKKGEKEEKEKEKKKGPSKATVKAMQEALAKLKEEEERQKREEEERIKRLEELEAKRKEEERLEQEKRERKKQKEKERKERLKKEGKLLTKSQREARARAEATLKLLQAQGVEVPSKDSLPKKRPIYEDKKRKKIPQQLESKEVSESMELCAAVEVMEQGVPEKEETPPPVEPEEEEDTEDAGLDDWEAMASDEETEKVEGNKVHIEVKENPEEEEEEEEEEEEDEESEEEEEEEGESEGSEGDEEDEKVSDEKDSGKTLDKKPSKEMSSDSEYDSDDDRTKEERAYDKAKRRIEKRRLEHSKNVNTEKLRAPIICVLGHVDTGKTKILDKLRHTHVQDGEAGGITQQIGATNVPLEAINEQTKMIKNFDRENVRIPGMLIIDTPGHESFSNLRNRGSSLCDIAILVVDIMHGLEPQTIESINLLKSKKCPFIVALNKIDRLYDWKKSPDSDVAATLKKQKKNTKDEFEERAKAIIVEFAQQGLNAALFYENKDPRTFVSLVPTSAHTGDGMGSLIYLLVELTQTMLSKRLAHCEELRAQVMEVKALPGMGTTIDVILINGRLKEGDTIIVPGVEGPIVTQIRGLLLPPPMKELRVKNQYEKHKEVEAAQGVKILGKDLEKTLAGLPLLVAYKEDEIPVLKDELIHELKQTLNAIKLEEKGVYVQASTLGSLEALLEFLKTSEVPYAGINIGPVHKKDVMKASVMLEHDPQYAVILAFDVRIERDAQEMADSLGVRIFSAEIIYHLFDAFTKYRQDYKKQKQEEFKHIAVFPCKIKILPQYIFNSRDPIVMGVTVEAGQVKQGTPMCVPSKNFVDIGIVTSIEINHKQVDVAKKGQEVCVKIEPIPGESPKMFGRHFEATDILVSKISRQSIDALKDWFRDEMQKSDWQLIVELKKVFEII [EIF5B] | 51.5 °C | 51.6 °C | -0.19 | 1.35 | 2.42 | 0.0872
MAAIPPDSWQPPNVYLETSMGIIVLELYWKHAPKTCKNFAELARRGYYNGTKFHRIIKDFMIQGGDPTGTGRGGASIYGKQFEDELHPDLKFTGAGILAMANAGPDTNGSQFFVTLAPTQWLDGKHTIFGRVCQGIGMVNRVGMVETNSQDRPVDDVKIIKAYPSG [PPIL1] | 49.1 °C | 50.1 °C | 0.351 | -0.554 | -0.941 | 0.414
MASEKPLAAVTCTAPVNIAVIKYWGKRDEELVLPINSSLSVTLHQDQLKTTTTAVISKDFTEDRIWLNGREEDVGQPRLQACLREIRCLARKRRNSRDGDPLPSSLSCKVHVASVNNFPTAAGLASSAAGYACLAYTLARVYGVESDLSEVARRGSGSACRSLYGGFVEWQMGEQADGKDSIARQVAPESHWPELRVLILVVSAEKKLTGSTVGMRASVETSPLLRFRAESVVPARMAEMARCIRERDFPSFAQLTMKDSNQFHATCLDTFPPISYLNAISWRIIHLVHRFNAHHGDTKVAYTFDAGPNAVIFTLDDTVAEFVAAVWHGFPPGSNGDTFLKGLQVRPAPLSAELQAALAMEPTPGGVKYIIVTQVGPGPQILDDPCAHLLGPDGLPKPAA [MVD] | 52.6 °C | 52.6 °C | 0.321 | -0.632 | -0.962 | -0.138
MGVRGLQGFVGSTCPHICTVVNFKELAEHHRSKYPGCTPTIVVDAMCCLRYWYTPESWICGGQWREYFSALRDFVKTFTAAGIKLIFFFDGMVEQDKRDEWVKRRLKNNREISRIFHYIKSHKEQPGRNMFFIPSGLAVFTRFALKTLGQETLCSLQEADYEVASYGLQHNCLGILGEDTDYLIYDTCPYFSISELCLESLDTVMLCREKLCESLGLCVADLPLLACLLGNDIIPEGMFESFRYKCLSSYTSVKENFDKKGNIILAVSDHISKVLYLYQGEKKLEEILPLGPNKALFYKGMASYLLPGQKSPWFFQKPKGVITLDKQVISTSSDAESREEVPMCSDAESRQEVPMCTGPESRREVPVYTDSEPRQEVPMCSDPEPRQEVPTCTGPESRREVPMCSDPEPRQEVPMCTGPEARQEVPMYTDSEPRQEVPMYTDSEPRQEVPMYTGSEPRQEVPMYTGPESRQEVPMYTGPESRQEVLIRTDPESRQEIMCTGHESKQEVPICTDPISKQEDSMCTHAEINQKLPVATDFEFKLEALMCTNPEIKQEDPTNVGPEVKQQVTMVSDTEILKVARTHHVQAESYLVYNIMSSGEIECSNTLEDELDQALPSQAFIYRPIRQRVYSLLLEDCQDVTSTCLAVKEWFVYPGNPLRHPDLVRPLQMTIPGGTPSLKILWLNQEPEIQVRRLDTLLACFNLSSSREELQAVESPFQALCCLLIYLFVQVDTLCLEDLHAFIAQALCLQGKSTSQLVNLQPDYINPRAVQLGSLLVRGLTTLVLVNSACGFPWKTSDFMPWNVFDGKLFHQKYLQSEKGYAVEVLLEQNRSRLTKFHNLKAVVCKACMKENRRITGRAHWGSHHAGRWGRQGSSYHRTGSGYSRSSQGQPWRDQGPGSRQYEHDQWRRY [FAM120B] | 50.2 °C | 49.1 °C | -0.319 | 1.29 | 1.3 | -0.0624
MAELQMLLEEEIPSGKRALIESYQNLTRVADYCENNYIQATDKRKALEETKAYTTQSLASVAYQINALANNVLQLLDIQASQLRRMESSINHISQTVDIHKEKVARREIGILTTNKNTSRTHKIIAPANMERPVRYIRKPIDYTVLDDVGHGVKWLKAKHGNNQPARTGTLSRTNPPTQKPPSPPMSGRGTLGRNTPYKTLEPVKPPTVPNDYMTSPARLGSQHSPGRTASLNQRPRTHSGSSGGSGSRENSGSSSIGIPIAVPTPSPPTIGPENISVPPPSGAPPAPPLAPLLPVSTVIAAPGSAPGSQYGTMTRQISRHNSTTSSTSSGGYRRTPSVTAQFSAQPHVNGGPLYSQNSISIAPPPPPMPQLTPQIPLTGFVARVQENIADSPTPPPPPPPDDIPMFDDSPPPPPPPPVDYEDEEAAVVQYNDPYADGDPAWAPKNYIEKVVAIYDYTKDKDDELSFMEGAIIYVIKKNDDGWYEGVCNRVTGLFPGNYVESIMHYTD [ABI1] | 51.1 °C | 51.4 °C | 0.313 | -0.724 | -0.695 | -0.104
MQQDGLGVGTRNGSGKGRSVHPSWPWCAPRPLRYFGRDARARRAQTAAMALLAGGLSRGLGSHPAAAGRDAVVFVWLLLSTWCTAPARAIQVTVSNPYHVVILFQPVTLPCTYQMTSTPTQPIVIWKYKSFCRDRIADAFSPASVDNQLNAQLAAGNPGYNPYVECQDSVRTVRVVATKQGNAVTLGDYYQGRRITITGNADLTFDQTAWGDSGVYYCSVVSAQDLQGNNEAYAELIVLGRTSGVAELLPGFQAGPIEDWLFVVVVCLAAFLIFLLLGICWCQCCPHTCCCYVRCPCCPDKCCCPEALYAAGKAATSGVPSIYAPSTYAHLSPAKTPPPPAMIPMGPAYNGYPGGYPGDVDRSSSAGGQGSYVPLLRDTDSSVASEVRSGYRIQASQQDDSMRVLYYMEKELANFDPSRPGPPSGRVERAMSEVTSLHEDDWRSRPSRGPALTPIRDEEWGGHSPRSPRGWDQEPAREQAGGGWRARRPRARSVDALDDLTPPSTAESGSRSPTSNGGRSRAYMPPRSRSRDDLYDQDDSRDFPRSRDPHYDDFRSRERPPADPRSHHHRTRDPRDNGSRSGDLPYDGRLLEEAVRKKGSEERRRPHKEEEEEAYYPPAPPPYSETDSQASRERRLKKNLALSRESLVV | 53.8 °C | 54.6 °C | -0.186 | -3.76 | -1.62 | 0.133
MYCBP2 | 51.4 °C | 50.8 °C | -0.39 | -0.686 | -0.306 | 0.0594
MFISLWEFFYGHFFRFWMKWLLRQMTGKCELQRIFDTYVGAQRTHRIENSLTYSKNKVLQKATHVVQSEVDKYVDDIMKEKNINPEKDASFKICMKMCLLQITGYKQLYLDVESVRKRPYDSDNLQHEELLMKLWNLLMPTKKLNARISKQWAEIGFQGDDPKTDFRGMGILGLINLVYFSENYTSEAHQILSRSNHPKLGYSYAIVGINLTEMAYSLLKSEALKFHLYNLVPGIPTMEHFHQFYCYLVYEFDKFWFEEEPESIMYFNLYREKFHEKIKGLLLDCNVALTLKV [ELMOD2] | 51.5 °C | 51.3 °C | -0.348 | -0.373 | -0.0202 | -0.25
